B1: Programmed cell death protein 4 (Homo sapiens), Q53EL6 (parent)
chain: MDVENEQILNVNPADPDNLSDSLFSGDEENAGTEEIKNEINGNWISASSINEARINAKAKRRLRKNSSRDSGRGDSVSDSGSDALRSGLTVPTSPKGRLLDRRSRSGKGRGLPKKGGAGGKGVWGTPGQVYDVEEVDVKDPNYDDDQENCVYETVVLPLDERAFEKTLTPIIQEYFEHGDTNEVAEMLRDLNLGEMKSGVPVLAVSLALEGKASHREMTSKLLSDLCGTVMSTTDVEKSFDKLLKDLPELALDTPRAPQLVGQFIARAVGDGILCNTYIDSYKGTVDCVQARAALDKATVLLSMSKGGKRKDSVWGSGGGQQSVNHLVKEIDMLLKEYLLSGDISEAEHCLKELEVPHFHHELVYEAIIMVLESTGESTFKMILDLLKSLWKSSTITVDQMKRGYERIYNEIPDINLDVPHSYSVLERFVEECFQAGIISKQLRDLCPSRGRKRFVSEGDGGRLKPESY

Variants of: B1
Conditions: with if4a1_human EIF4A1, P60842
Sequence of if4a1_human EIF4A1, P60842 (P60842 whole entry): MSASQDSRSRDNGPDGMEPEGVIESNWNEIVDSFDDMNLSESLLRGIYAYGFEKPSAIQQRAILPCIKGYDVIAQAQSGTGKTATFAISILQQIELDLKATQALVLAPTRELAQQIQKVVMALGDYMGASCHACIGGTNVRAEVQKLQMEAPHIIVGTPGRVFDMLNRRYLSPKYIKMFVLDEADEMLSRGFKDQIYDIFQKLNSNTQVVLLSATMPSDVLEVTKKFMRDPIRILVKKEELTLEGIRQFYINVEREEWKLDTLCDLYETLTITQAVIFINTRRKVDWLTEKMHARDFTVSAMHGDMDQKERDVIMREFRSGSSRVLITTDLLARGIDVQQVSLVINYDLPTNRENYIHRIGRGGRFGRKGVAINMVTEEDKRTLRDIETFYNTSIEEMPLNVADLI

Row | Variant | effect of a mutation on the interaction
1 | E249A;D253A;D414A;D418A | disrupting interaction strength

From IntAct's records for PubMed 19204291
